Reference: US20260015399A1 (Boehringer Ingelheim, published 2026)
*1 amine or outer side, *2 acyl side, *3 side chain or, on linkers, in order; H or OH if unused. Side-chain parts run from the residue outwards. The star is where a group is joined. C18 diacid = O=C(O)CCCCCCCCCCCCCCCCC(=O)*; γGlu = O=C(O)[C@H](CCC(=O)[*:2])N[*:1]; Isovaleryl = CC(C)CC(=O)*; Ahx = NCCCCCC(=O)O

T1: human NPY2 receptor (human, UniProt P49146 1-381)
T1 construct: whole, on cells; also called hNPY2-R; hNPY2R
T1 sequence (looked up): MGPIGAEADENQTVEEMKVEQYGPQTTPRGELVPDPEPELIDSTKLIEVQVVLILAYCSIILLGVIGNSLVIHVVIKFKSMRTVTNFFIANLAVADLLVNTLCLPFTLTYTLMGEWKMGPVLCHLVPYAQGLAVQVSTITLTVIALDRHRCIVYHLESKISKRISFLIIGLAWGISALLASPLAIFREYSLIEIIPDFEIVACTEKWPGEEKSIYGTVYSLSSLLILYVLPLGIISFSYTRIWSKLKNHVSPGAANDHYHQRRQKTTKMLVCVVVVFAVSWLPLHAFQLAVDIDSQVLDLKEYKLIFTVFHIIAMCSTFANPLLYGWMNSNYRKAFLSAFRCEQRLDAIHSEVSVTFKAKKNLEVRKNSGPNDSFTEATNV

B1: Compound 180 (peptide)
peptide: Isovaleryl-APEK([Ahx-γGlu-C18 diacid])PEEDATPEELQRYYVSLRHYYNWLTKQRY-NH2
SMILES: CC(C)CC(=O)N[C@@H](C)C(=O)N1CCC[C@H]1C(=O)N[C@@H](CCC(=O)O)C(=O)N[C@@H](CCCCNC(=O)CCCCCNC(=O)CC[C@H](NC(=O)CCCCCCCCCCCCCCCCC(=O)O)C(=O)O)C(=O)N1CCC[C@H]1C(=O)N[C@@H](CCC(=O)O)C(=O)N[C@@H](CCC(=O)O)C(=O)N[C@@H](CC(=O)O)C(=O)N[C@@H](C)C(=O)N[C@H](C(=O)N1CCC[C@H]1C(=O)N[C@@H](CCC(=O)O)C(=O)N[C@@H](CCC(=O)O)C(=O)N[C@@H](CC(C)C)C(=O)N[C@@H](CCC(N)=O)C(=O)N[C@@H](CCCNC(=N)N)C(=O)N[C@@H](Cc1ccc(O)cc1)C(=O)N[C@@H](Cc1ccc(O)cc1)C(=O)N[C@H](C(=O)N[C@@H](CO)C(=O)N[C@@H](CC(C)C)C(=O)N[C@@H](CCCNC(=N)N)C(=O)N[C@@H](Cc1c[nH]cn1)C(=O)N[C@@H](Cc1ccc(O)cc1)C(=O)N[C@@H](Cc1ccc(O)cc1)C(=O)N[C@@H](CC(N)=O)C(=O)N[C@@H](Cc1c[nH]c2ccccc12)C(=O)N[C@@H](CC(C)C)C(=O)N[C@H](C(=O)N[C@@H](CCCCN)C(=O)N[C@@H](CCC(N)=O)C(=O)N[C@@H](CCCNC(=N)N)C(=O)N[C@@H](Cc1ccc(O)cc1)C(N)=O)[C@@H](C)O)C(C)C)[C@@H](C)O
B2: Compound 187 (peptide)
peptide: Isovaleryl-APEK([Ahx-γGlu-C18 diacid])PEEDATPEEPQRYYVSLRHYYNWLTRQRY-NH2
SMILES: CC(C)CC(=O)N[C@@H](C)C(=O)N1CCC[C@H]1C(=O)N[C@@H](CCC(=O)O)C(=O)N[C@@H](CCCCNC(=O)CCCCCNC(=O)CC[C@H](NC(=O)CCCCCCCCCCCCCCCCC(=O)O)C(=O)O)C(=O)N1CCC[C@H]1C(=O)N[C@@H](CCC(=O)O)C(=O)N[C@@H](CCC(=O)O)C(=O)N[C@@H](CC(=O)O)C(=O)N[C@@H](C)C(=O)N[C@H](C(=O)N1CCC[C@H]1C(=O)N[C@@H](CCC(=O)O)C(=O)N[C@@H](CCC(=O)O)C(=O)N1CCC[C@H]1C(=O)N[C@@H](CCC(N)=O)C(=O)N[C@@H](CCCNC(=N)N)C(=O)N[C@@H](Cc1ccc(O)cc1)C(=O)N[C@@H](Cc1ccc(O)cc1)C(=O)N[C@H](C(=O)N[C@@H](CO)C(=O)N[C@@H](CC(C)C)C(=O)N[C@@H](CCCNC(=N)N)C(=O)N[C@@H](Cc1c[nH]cn1)C(=O)N[C@@H](Cc1ccc(O)cc1)C(=O)N[C@@H](Cc1ccc(O)cc1)C(=O)N[C@@H](CC(N)=O)C(=O)N[C@@H](Cc1c[nH]c2ccccc12)C(=O)N[C@@H](CC(C)C)C(=O)N[C@H](C(=O)N[C@@H](CCCNC(=N)N)C(=O)N[C@@H](CCC(N)=O)C(=O)N[C@@H](CCCNC(=N)N)C(=O)N[C@@H](Cc1ccc(O)cc1)C(N)=O)[C@@H](C)O)C(C)C)[C@@H](C)O
B3: Compound 181 (peptide)
peptide: Isovaleryl-APAK([Ahx-γGlu-C18 diacid])PEADAEPEEIQRYYVALRHYYNWLTRQRY-NH2
SMILES: CC[C@H](C)[C@H](NC(=O)[C@H](CCC(=O)O)NC(=O)[C@H](CCC(=O)O)NC(=O)[C@@H]1CCCN1C(=O)[C@H](CCC(=O)O)NC(=O)[C@H](C)NC(=O)[C@H](CC(=O)O)NC(=O)[C@H](C)NC(=O)[C@H](CCC(=O)O)NC(=O)[C@@H]1CCCN1C(=O)[C@H](CCCCNC(=O)CCCCCNC(=O)CC[C@H](NC(=O)CCCCCCCCCCCCCCCCC(=O)O)C(=O)O)NC(=O)[C@H](C)NC(=O)[C@@H]1CCCN1C(=O)[C@H](C)NC(=O)CC(C)C)C(=O)N[C@@H](CCC(N)=O)C(=O)N[C@@H](CCCNC(=N)N)C(=O)N[C@@H](Cc1ccc(O)cc1)C(=O)N[C@@H](Cc1ccc(O)cc1)C(=O)N[C@H](C(=O)N[C@@H](C)C(=O)N[C@@H](CC(C)C)C(=O)N[C@@H](CCCNC(=N)N)C(=O)N[C@@H](Cc1c[nH]cn1)C(=O)N[C@@H](Cc1ccc(O)cc1)C(=O)N[C@@H](Cc1ccc(O)cc1)C(=O)N[C@@H](CC(N)=O)C(=O)N[C@@H](Cc1c[nH]c2ccccc12)C(=O)N[C@@H](CC(C)C)C(=O)N[C@H](C(=O)N[C@@H](CCCNC(=N)N)C(=O)N[C@@H](CCC(N)=O)C(=O)N[C@@H](CCCNC(=N)N)C(=O)N[C@@H](Cc1ccc(O)cc1)C(N)=O)[C@@H](C)O)C(C)C
B4: Compound 190 (peptide)
peptide: Isovaleryl-APAK([Ahx-γGlu-C18 diacid])PEEDATPEELQRYYISLRHYYNWLTRQRY-NH2
SMILES: CC[C@H](C)[C@H](NC(=O)[C@H](Cc1ccc(O)cc1)NC(=O)[C@H](Cc1ccc(O)cc1)NC(=O)[C@H](CCCNC(=N)N)NC(=O)[C@H](CCC(N)=O)NC(=O)[C@H](CC(C)C)NC(=O)[C@H](CCC(=O)O)NC(=O)[C@H](CCC(=O)O)NC(=O)[C@@H]1CCCN1C(=O)[C@@H](NC(=O)[C@H](C)NC(=O)[C@H](CC(=O)O)NC(=O)[C@H](CCC(=O)O)NC(=O)[C@H](CCC(=O)O)NC(=O)[C@@H]1CCCN1C(=O)[C@H](CCCCNC(=O)CCCCCNC(=O)CC[C@H](NC(=O)CCCCCCCCCCCCCCCCC(=O)O)C(=O)O)NC(=O)[C@H](C)NC(=O)[C@@H]1CCCN1C(=O)[C@H](C)NC(=O)CC(C)C)[C@@H](C)O)C(=O)N[C@@H](CO)C(=O)N[C@@H](CC(C)C)C(=O)N[C@@H](CCCNC(=N)N)C(=O)N[C@@H](Cc1c[nH]cn1)C(=O)N[C@@H](Cc1ccc(O)cc1)C(=O)N[C@@H](Cc1ccc(O)cc1)C(=O)N[C@@H](CC(N)=O)C(=O)N[C@@H](Cc1c[nH]c2ccccc12)C(=O)N[C@@H](CC(C)C)C(=O)N[C@H](C(=O)N[C@@H](CCCNC(=N)N)C(=O)N[C@@H](CCC(N)=O)C(=O)N[C@@H](CCCNC(=N)N)C(=O)N[C@@H](Cc1ccc(O)cc1)C(N)=O)[C@@H](C)O
B5: Compound 185 (peptide)
peptide: Isovaleryl-APAK([Ahx-γGlu-C18 diacid])PEEDASEEELQRYYVSLRHYYNWLTRQRY-NH2
SMILES: CC(C)CC(=O)N[C@@H](C)C(=O)N1CCC[C@H]1C(=O)N[C@@H](C)C(=O)N[C@@H](CCCCNC(=O)CCCCCNC(=O)CC[C@H](NC(=O)CCCCCCCCCCCCCCCCC(=O)O)C(=O)O)C(=O)N1CCC[C@H]1C(=O)N[C@@H](CCC(=O)O)C(=O)N[C@@H](CCC(=O)O)C(=O)N[C@@H](CC(=O)O)C(=O)N[C@@H](C)C(=O)N[C@@H](CO)C(=O)N[C@@H](CCC(=O)O)C(=O)N[C@@H](CCC(=O)O)C(=O)N[C@@H](CCC(=O)O)C(=O)N[C@@H](CC(C)C)C(=O)N[C@@H](CCC(N)=O)C(=O)N[C@@H](CCCNC(=N)N)C(=O)N[C@@H](Cc1ccc(O)cc1)C(=O)N[C@@H](Cc1ccc(O)cc1)C(=O)N[C@H](C(=O)N[C@@H](CO)C(=O)N[C@@H](CC(C)C)C(=O)N[C@@H](CCCNC(=N)N)C(=O)N[C@@H](Cc1c[nH]cn1)C(=O)N[C@@H](Cc1ccc(O)cc1)C(=O)N[C@@H](Cc1ccc(O)cc1)C(=O)N[C@@H](CC(N)=O)C(=O)N[C@@H](Cc1c[nH]c2ccccc12)C(=O)N[C@@H](CC(C)C)C(=O)N[C@H](C(=O)N[C@@H](CCCNC(=N)N)C(=O)N[C@@H](CCC(N)=O)C(=O)N[C@@H](CCCNC(=N)N)C(=O)N[C@@H](Cc1ccc(O)cc1)C(N)=O)[C@@H](C)O)C(C)C
B6: Compound 188 (peptide)
peptide: Isovaleryl-APEK([Ahx-γGlu-C18 diacid])PEEDATPEELQRYYVSLRHYYNWLQRQRY-NH2
SMILES: CC(C)CC(=O)N[C@@H](C)C(=O)N1CCC[C@H]1C(=O)N[C@@H](CCC(=O)O)C(=O)N[C@@H](CCCCNC(=O)CCCCCNC(=O)CC[C@H](NC(=O)CCCCCCCCCCCCCCCCC(=O)O)C(=O)O)C(=O)N1CCC[C@H]1C(=O)N[C@@H](CCC(=O)O)C(=O)N[C@@H](CCC(=O)O)C(=O)N[C@@H](CC(=O)O)C(=O)N[C@@H](C)C(=O)N[C@H](C(=O)N1CCC[C@H]1C(=O)N[C@@H](CCC(=O)O)C(=O)N[C@@H](CCC(=O)O)C(=O)N[C@@H](CC(C)C)C(=O)N[C@@H](CCC(N)=O)C(=O)N[C@@H](CCCNC(=N)N)C(=O)N[C@@H](Cc1ccc(O)cc1)C(=O)N[C@@H](Cc1ccc(O)cc1)C(=O)N[C@H](C(=O)N[C@@H](CO)C(=O)N[C@@H](CC(C)C)C(=O)N[C@@H](CCCNC(=N)N)C(=O)N[C@@H](Cc1c[nH]cn1)C(=O)N[C@@H](Cc1ccc(O)cc1)C(=O)N[C@@H](Cc1ccc(O)cc1)C(=O)N[C@@H](CC(N)=O)C(=O)N[C@@H](Cc1c[nH]c2ccccc12)C(=O)N[C@@H](CC(C)C)C(=O)N[C@@H](CCC(N)=O)C(=O)N[C@@H](CCCNC(=N)N)C(=O)N[C@@H](CCC(N)=O)C(=O)N[C@@H](CCCNC(=N)N)C(=O)N[C@@H](Cc1ccc(O)cc1)C(N)=O)C(C)C)[C@@H](C)O

Molecular target: T1, human NPY2 receptor
Test: RLB: displacement of 125I-PYY(1-36) from hNPY2R membranes

Ki	Binder
15.1 nM	B1
15.3 nM	B2
1.33 nM	B3
1.95 nM	B4
2.06 nM	B5
5.46 nM	B6
